Data published in PMC9372576, “Interaction of the gas vesicle proteins GvpA, GvpC, GvpN, and GvpO of Halobacterium salinarum” (Frontiers in Microbiology, 2022).

T1: GvpC C-terminal fragment Cterm (Halobacterium salinarum, UniProt P24574 329-382)
T1 construct: GvpC of Halobacterium salinarum, aa 329-382, the globular C-terminal domain with a zinc-finger motif; GFP fragment at the N- or C-terminus; source: Hfx. volcanii WR340 transformant, split-GFP fusion in living cells
T1 sequence (looked up): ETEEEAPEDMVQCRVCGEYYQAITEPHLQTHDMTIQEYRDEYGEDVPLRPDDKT

B1: GvpN fused to NGFP or CGFP (natural protein, Halobacterium salinarum, UniProt Q9HI16 1-347, looked up)
chain: MTNESRKRKVRGSQIRSSRGDKKQGRSQSRDDKEIERLERQNDARGQESSTHVDEGFVPEEQSFIETESVNRVESRMERWLDVGRPVHLIGPTGCGKTSLAMHVARERDRPVVWINGDAELTTSDLVGEYAEKERISEHDQFIHNVVKSKDIIRDRWVDNPLTLAVQEGATLVYNEFSRTKPVANNVLLSVFEEGVLELPGKRGKSRYVDVHPEFRTILTSNSVEYAGVHEPQDALLDRLIGIYMDFYDLDTEIEIVRAHVDKSADTNVEDIVRVLRELRERLDITVGTRAAIMANEGATTVDTVDQAVLTDICTDVLASKVAQRSDVRGLREEIESAIDDMEVALS
notes: GvpN of the p-vac region of Halobacterium salinarum; gvpN amplified from the p-vac region; GFP fragment at the N- or C-terminus, 14 or 16 aa linker; source: Hfx. volcanii WR340 transformant, split-GFP fusion in living cells
B2: GvpC fused to NGFP or CGFP (natural protein, Halobacterium salinarum, UniProt P24574 1-382, looked up)
chain: MSVTDKRDEMSTARDKFAESQQEFESYADEFAADITAKQDDVSDLVDAITDFQAEMTNTTDAFHTYGDEFAAEVDHLRADIDAQRDVIREMQDAFEAYADIFATDIADKQDIGNLLAAIEALRTEMNSTHGAFEAYADDFAADVAALRDISDLVAAIDDFQEEFIAVQDAFDNYAGDFDAEIDQLHAAIADQHDSFDATADAFAEYRDEFYRIEVEALLEAINDFQQDIGDFRAEFETTEDAFVAFARDFYGHEITAEEGAAEAEAEPVEADADVEAEAEVSPDEAGGESAGTEEEETEPAEVETAAPEVEGSPADTADEAEDTEAEEETEEEAPEDMVQCRVCGEYYQAITEPHLQTHDMTIQEYRDEYGEDVPLRPDDKT
notes: GvpC of the p-vac region of Halobacterium salinarum; gvpC amplified from the p-vac region; GFP fragment at the N- or C-terminus, 14 or 16 aa linker; source: Hfx. volcanii WR340 transformant, split-GFP fusion in living cells

Assays:
Assay in all cases: split reporter (BiFC, NanoBiT); split-GFP (NGFP and CGFP of salt-stable mGFP2) in Hfx. volcanii transformants, 24 h 37 °C then 24 h 30 °C; relative fluorescence (rf) against the wild type; the highest of eight tag combinations is given
[1] = molecular target: B1; settings: partners not purified
[2] = molecular target: the molecule itself
[3] = molecular target: T1, GvpC C-terminal fragment Cterm; settings: partners not purified
[4] = molecular target: B2; settings: partners not purified

Row | Binder | relative fluorescence (rf) [1] | relative fluorescence (rf) [2] | relative fluorescence (rf) [3] | relative fluorescence (rf) [4]
1 | GvpJ fused to NGFP or CGFP (natural protein, Halobacterium salinarum, UniProt P24374 1-114, looked up, accessory gas vesicle protein GvpJ of Halobacterium salinarum; construct of earlier work; source: Hfx. volcanii WR340 transformant, split-GFP fusion in living cells) MSDPKPTRSQGDLAEMLEMLLDKGVVVNADIAVSVGDTELLGIELRAAIASFETAAEYGLEFPTGTDMERVESAANISPDQSDPASETQSETESTNPLSDDSTPTASTSAEETK | < 5 LAU/mm^2 |  |  | 
2 | GvpM fused to NGFP or CGFP (natural protein, Halobacterium salinarum, UniProt P24377 1-84, looked up, accessory gas vesicle protein GvpM of Halobacterium salinarum; construct of earlier work; source: Hfx. volcanii WR340 transformant, split-GFP fusion in living cells) MEPTKDETHAIVEFVDVLLRDGAVIQADVIVTVADIPLIGISLRAAIAGMTTMTEYGLFEEWDAAHRQQSEAFTTSPTADRRED | < 5 LAU/mm^2 |  |  | 
3 | B1 |  | > 10 LAU/mm^2 |  | 
4 | GvpK fused to NGFP or CGFP (natural protein, accessory gas vesicle protein GvpK of Halobacterium salinarum; construct of earlier work; source: Hfx. volcanii WR340 transformant, split-GFP fusion in living cells) not shown | < 5 LAU/mm^2 |  |  | 
5 | GvpG fused to NGFP or CGFP (natural protein, Halobacterium salinarum, UniProt P24371 1-83, looked up, accessory gas vesicle protein GvpG of Halobacterium salinarum; construct of earlier work; source: Hfx. volcanii WR340 transformant, split-GFP fusion in living cells) MFIIDDLFVSPFFSLLDILQTMALDEMYDTKSIRDDIKENQLLYEVGERSDEEYQQRKQALESQLEMAEQVQEQMRDRMEVKK | < 5 LAU/mm^2 |  |  | 
6 | GvpH fused to NGFP or CGFP (natural protein, Halobacterium salinarum, UniProt P24372 1-182, looked up, accessory gas vesicle protein GvpH of Halobacterium salinarum; construct of earlier work; source: Hfx. volcanii WR340 transformant, split-GFP fusion in living cells) MVPDENDDASDDQSSQLSGLLDQLHTLVEVLADIEEEGGHRHESGRIDRGNARIDYDYDVSIGLGRADGSSYDEEPSSNRSRSEQRSGQQRTTEDSIHVETRGGTSGDELVVVADLPGVTDDDVDVALDTDEQALTLRVDDDVVERVVLDRPDVAITDMTLRNQVLEIRLARTSDTDGGEST | < 5 LAU/mm^2 |  | 42.6 LAU/mm^2 | > 7.5 LAU/mm^2
7 | GvpI fused to NGFP or CGFP (natural protein, Halobacterium salinarum, UniProt Q9HI24 1-144, looked up, accessory gas vesicle protein GvpI of Halobacterium salinarum; construct of earlier work; source: Hfx. volcanii WR340 transformant, split-GFP fusion in living cells) MSDKQQQKHKQKARQARVKAQINRDKARRNLLRQREKLARRRTRNRKQSEPRRDDSDGDDTDGETVKNPAAHSTMPPQKSNAENAVRNSHSTVPKTPKYSDVTARERLYGQRLHQKTAGGNSEASAPSDESASGSPTEDEVNDE | < 5 LAU/mm^2 |  | > 18 LAU/mm^2 | > 7.5 LAU/mm^2
8 | GvpL fused to NGFP or CGFP (natural protein, Halobacterium salinarum, UniProt Q9HI27 1-281, looked up, accessory gas vesicle protein GvpL of Halobacterium salinarum; construct of earlier work; source: Hfx. volcanii WR340 transformant, split-GFP fusion in living cells) MTDHRPSPEEEQTTANEERTVSNGRYLYCVVDTTSSESATLSTTGVDDNPVYVVEADGVGAVVHDCETVYETEDLEQVKRWLVTHQQVVDAASDAFGTPLPMRFDTVLEGGDASIERWLEDHYEGFRDELASFAGVWEYRINLLWDSAPFEETIADRDDRLRELRQRQQQSGAGKKFLLEKQSDQRLQELKRERRTELADQLKEAITPVVNDLTEQDTNTPLQDEHSSIEKEQIVRFAVLADEDDETALGDRLDTIVEHEGVEIRFTGPWPPYTFAPDIGK | 16.9 LAU/mm^2 |  | > 18 LAU/mm^2 | 28.6 LAU/mm^2
9 | B2 |  | 14.5 LAU/mm^2 |  | 
